What all share (type): biochemical, Pseudomonas protegens
The subject of data set [1] is T1, CCCC(=O)Oc1ccccc1.
T1 construct: PhlABC multi-subunit acyltransferase from codon-harmonized construct, recombinant in E. coli, purified enzyme; with 2,4-diacetylphloroglucinol biosynthesis acyltransferase subunit PhlA; 2,4-diacetylphloroglucinol biosynthesis acyltransferase subunit PhlB
Kind of data set: HPLC assay of resorcinol acylation. The note with it: 10 mM resorcinol as acceptor, 100 mM imidazole, potassium phosphate pH 7.5, 35 °C. An excerpt:
(§1) HPLC assay of resorcinol acylation on PpATaseCH

For data set [2], the system named is T2, COCC(=O)Oc1ccccc1.
T2 construct: PhlABC multi-subunit acyltransferase from codon-harmonized construct, recombinant in E. coli, purified enzyme; with 2,4-diacetylphloroglucinol biosynthesis acyltransferase subunit PhlA; 2,4-diacetylphloroglucinol biosynthesis acyltransferase subunit PhlB
Kind of data set: HPLC assay of resorcinol acylation. As to conditions: 10 mM resorcinol as acceptor, 100 mM imidazole, potassium phosphate pH 7.5, 35 °C.
From the text: as §1

The subject of data set [3] is T3, CCCC(=O)c1c(O)cc(O)cc1O.
T3 construct: PhlABC multi-subunit acyltransferase from codon-harmonized construct, recombinant in E. coli, purified enzyme; with 2,4-diacetylphloroglucinol biosynthesis acyltransferase subunit PhlA; 2,4-diacetylphloroglucinol biosynthesis acyltransferase subunit PhlB
Kind of data set: purified protein. The note with it: disproportionation to 3a (DBPG), 100 mM potassium phosphate pH 7.5, 35 °C.

In data set [4] the test system is T4, CC(=O)c1c(O)cc(O)cc1O.
T4 construct: PhlABC multi-subunit acyltransferase from codon-harmonized construct, recombinant in E. coli, purified enzyme; with 2,4-diacetylphloroglucinol biosynthesis acyltransferase subunit PhlA; 2,4-diacetylphloroglucinol biosynthesis acyltransferase subunit PhlB
Kind of data set: purified protein. The note with it: disproportionation to DAPG, 100 mM potassium phosphate pH 7.5, 35 °C.

On to “PpATaseCH (Pseudomonas protegens Pf-5; F148V)”, for which the Km in data set [1] is 3200 ± 100 µM; in data set [2] it was 5000 ± 1000 µM; in data set [3], 540 ± 70 µM; in data set [4], 240 ± 90 µM. Further, the Vmax in data set [1] was 40 µM/min; in data set [2], 580 µM/min; in data set [3], 620 µM/min; in data set [4], 820 µM/min. Moreover, the kcat in data set [1] worked out at 0.012 ± 0.002 s⁻¹; in data set [2] it was 0.188 ± 0.016 s⁻¹; in data set [3], 5.3 ± 0.6 s⁻¹; in data set [4], 7.2 ± 1.9 s⁻¹. For the same substance, the kcat/Km in data set [1] was found to be 3.7 ± 0.6 M⁻¹ s⁻¹; in data set [2], 38.7 ± 8.5 M⁻¹ s⁻¹; in data set [3], 9900 ± 800 M⁻¹ s⁻¹; in data set [4], 31000 ± 4000 M⁻¹ s⁻¹.
